Laboratory results published in patent US5840867.
Like-named read-outs stand apart in the source and are kept apart here.

Assays:
[1] = biological target: bradykinin (peptide, thiopropyl-derivatised on Sepharose for selection) (UniProt P01042); details: method not stated, cited from earlier work
ovalbumin = biological target: T1, ovalbumin (UniProt P01012); assay: filter; details: 60 pmol ovalbumin; DNA alone 0.07%
T1 sequence: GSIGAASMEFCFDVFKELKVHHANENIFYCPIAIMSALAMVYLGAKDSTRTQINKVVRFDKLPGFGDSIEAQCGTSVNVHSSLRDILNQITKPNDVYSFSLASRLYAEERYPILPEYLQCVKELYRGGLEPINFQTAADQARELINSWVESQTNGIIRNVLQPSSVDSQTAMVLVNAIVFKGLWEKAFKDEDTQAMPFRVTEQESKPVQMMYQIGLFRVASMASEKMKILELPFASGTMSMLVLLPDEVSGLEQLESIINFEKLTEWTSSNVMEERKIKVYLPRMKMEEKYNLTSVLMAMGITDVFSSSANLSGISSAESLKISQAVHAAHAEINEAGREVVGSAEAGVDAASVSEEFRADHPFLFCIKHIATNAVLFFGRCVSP

thrombin = thrombin (Homo sapiens?) (UniProt P00734+P00734); assay: filter

Sequence of bradykinin (peptide, thiopropyl-derivatised on Sepharose for selection) (P01042 whole entry, looked up, tested part not stated): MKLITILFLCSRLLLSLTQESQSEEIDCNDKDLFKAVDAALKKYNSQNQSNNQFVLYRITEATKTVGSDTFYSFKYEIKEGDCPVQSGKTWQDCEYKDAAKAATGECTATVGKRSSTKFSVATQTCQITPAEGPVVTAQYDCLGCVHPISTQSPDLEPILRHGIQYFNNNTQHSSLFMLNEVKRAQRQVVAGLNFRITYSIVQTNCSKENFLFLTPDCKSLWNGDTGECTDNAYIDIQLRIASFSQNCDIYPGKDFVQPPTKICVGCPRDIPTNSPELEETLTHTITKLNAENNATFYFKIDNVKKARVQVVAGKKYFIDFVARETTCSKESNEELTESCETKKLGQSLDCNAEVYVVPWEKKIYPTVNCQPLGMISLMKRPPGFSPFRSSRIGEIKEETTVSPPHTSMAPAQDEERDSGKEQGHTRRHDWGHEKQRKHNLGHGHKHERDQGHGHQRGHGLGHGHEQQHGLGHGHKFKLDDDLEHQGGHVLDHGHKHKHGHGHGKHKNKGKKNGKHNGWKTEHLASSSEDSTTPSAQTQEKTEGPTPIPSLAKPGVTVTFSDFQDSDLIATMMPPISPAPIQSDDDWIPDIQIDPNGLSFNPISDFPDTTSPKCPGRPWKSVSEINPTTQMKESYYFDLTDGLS

For “CGTACGGTCGACGCTAGCNNNNNNNNNNNNNNNNNNNNNNNNNNNNNNNNNNNNNNNNNNNNNNNNNNNNNNNNNNNNCACGTGGAGCTCGGATCC [Round 5 bradykinin aptamer pool]”, the Kd ([1]; pool) is listed as 50 µM.
Sequence “CGTACGGTCGACGCTAGCNNNNNNNNNNNNNNNNNNNNNNNNNNNNNNNNNNNNNNNNNNNNNNNNNNNNNNNNNNNNCACGTGGAGCTCGGATCC [Round 5 thrombin aptamer pool (96-mer)]” has a binding signal (ovalbumin) of 0.05 % DNA bound and a binding signal (thrombin; 60 pmol thrombin, 3.5 pmol DNA in 200 uL selection buffer, RT 1 h, DNA alone 0.07%) of 20.4 % DNA bound.
For “CGTACGGTCGACGCTAGCNNNNNNNNNNNNNNNNNNNNNNNNNNNNNNNNNNNNNNNNNNNNNNNNNNNNNNNNNNNNCACGTGGAGCTCGGATCC [unselected 96-mer pool]”, the binding signal (thrombin; unselected DNA, DNA alone 0.08%) is given as 0.06 % DNA bound and the Kd ([1]; unselected DNA) is given as greater than 1000 µM.
